Test results taken from the nanobody polyreactivity screen of Harvey et al. (2022).

Test: yeast display, Sf9 membrane polyspecificity reagent, FACS + sequencing; frameworks hold sequencing errors
Procedure, shortened: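 Synthetic nanobody libraries on Saccharomyces cerevisiae BJ5465 were galactose-induced for 36–48 hours, stained 1 hour at 4 °C with 10% biotinylated, detergent-solubilized Sf9 membrane reagent and enriched on streptavidin microbeads. FACS then separated cells into low and high (top ~1%) gates by anti-HA (expression) and streptavidin (reagent binding) fluorescence. Genes were colony-PCR amplified, MiSeq 2 × 250 sequenced and CDR-length filtered. A clone's polyreactivity label is that of its gate of origin.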

Sequence: QVQLVESGGGLVQAGGSLRLSCAASGSIFTVNAMGWYRQAPGKERELVAAISDSGGSTYYADSVKGRFTISRDNAKNTVYLQMISLKPEDTAVYYCAVEIYYFVYGISYDYWGQGTQVTVSS
- polyreactivity (PSR sort gate): high polyreactivity

Sequence: QVQLVESGGGLVQAGGSLRLSCAASGSIFTVYAMGWYRQAPGKERELVAAINWSDGDTYYADSVKGRFTISRDNAKNTVYLQMNSLKPEDTAVYYCAAEGIYLILWYGYVEYDYWGQGTQVTVSS
- polyreactivity (PSR sort gate): low polyreactivity

Sequence: QVQLVESGGGLVQAGGSLRLSCAASGSIFTVYAMGWYRQAPGKESELVASIRFSSGRTYYADSVKGRFTISRDNAKNTVYLQMNSLKQEDTAVYYCASETVSWYRYYYWGQGTQVTVSS
- polyreactivity (PSR sort gate): high polyreactivity

Sequence: QVQLVESGGGLVQAGGSLRLSCAASGSIFTVYDMGWYRQAPGKERELVAAIDSSGGSTYYADSVKGRFTISRDNAKNTVYLQMNSLKPEDTAVYYCAADGDTTSPTYYIFWSGEFDYWGQGTQVTVSS
- polyreactivity (PSR sort gate): low polyreactivity

Sequence: QVQLVESGGGLVQAGGSLRLSCAASGSIFTYNAMGWYRQAPGKERELVAAISWSGGSRYYADSVKGRFTISRDNAKNTVYLQMNSLKPVDTAVYYCAAALQYRLYFYPKYDYWGQGTQVTVSS
- polyreactivity (PSR sort gate): high polyreactivity

Sequence: QVQLVESGGGLVQAGGSLRLSCAASGSIFTYNTMGWYRQAPGKERELVATISWSGGRTYYADSVKGRFTISRDNAKNTVYLQMNSLKPEDTAVYYCAAGYYYGYPPRDYWGQGSQVTVSS
- polyreactivity (PSR sort gate): high polyreactivity

Sequence: QVQLVESGGGLVQAGGSLRLSCAASGSIFTYYAMGWYRPAPGKERELVAAISSDGSTTYADSVKGRFTISRDNAKNTVYLQMNSLKPEDTAVYYCAASQFYFYYSPDGYDFWGQGTQVTVSS
- polyreactivity (PSR sort gate): low polyreactivity

Sequence: QVQLVESGGGLVQAGGSLRLSCAASGSIFTYYAMGWYRQAPGKEMELVAAISWSGGSTYYADSVKGRFTISRDNAKNTVYLQLNSLKPEDTAVYYCAKRYRKGRAYPGYEYWGQGTQVTVSS
- polyreactivity (PSR sort gate): low polyreactivity

Sequence: QVQLVESGGGLVQAGGSLRLSCAASGSIFTYYAMGWYRQAPGKERELVAAISASGGSTYYADSVKGRFTISRDNAKNTVYLQMNSLKPEDTAVYYCAADYRRSGGGNLPYDNDYWGQVTQVTVSS
- polyreactivity (PSR sort gate): high polyreactivity

Sequence: QVQLVESGGGLVQAGGSLRLSCAASGSIFTYYAMGWYRQAPGKERELVAAISRRGGSTYYAVSVKGRFTISRDNAKNTVYLQMNSLKPEDTAVYYCNKVAYPRYYTGVNEFDYWGQGTQVTVSS
- polyreactivity (PSR sort gate): high polyreactivity

Sequence: QVQLVESGGGLVQAGGSLRLSCAASGSIFVANAMGWYRQAPGKERELVAAISASGVTTYYADSVKGRFTISRDNAKNTVYLQMNSLKPEDTAVYYCNADYGSDDDVVRYDYWGQGTQVTVSS
- polyreactivity (PSR sort gate): low polyreactivity

Sequence: QVQLVESGGGLVQAGGSLRLSCAASGSIFVANAMGWYRQAPGKERELVAAISVRGGRTYYADSVKGRFTISRDNAKNTVYLQMNSLKPEDTAVYYCARVLRSDVADYDYWGQGTQVTVSS
- polyreactivity (PSR sort gate): high polyreactivity

Sequence: QVQLVESGGGLVQAGGSLRLSCAASGSIFVDYAMGWSRQAPGKERELVAAITSGGRTNYADSVKGRFTISRDNAKNTVYLQMNSLKPEDTAVYYCNKTRYTNYYTTTFDYWGQGTQVTVSS
- polyreactivity (PSR sort gate): low polyreactivity

Sequence: QVQLVESGGGLVQAGGSLRLSCAASGSIFVDYAMGWYRQAPGKEMELVAAISSGGGSTYYADSVKGRFTISRDNAKNTVYLQMNSLKPEDTAVYYCAASVYGQHAGPGRWYTFYYWGQGTQVTVSS
- polyreactivity (PSR sort gate): low polyreactivity

Sequence: QVQLVESGGGLVQAGGSLRLSCAASGSIFVENAMGWYRQAPGKERELVAAISSDASTNYADSVKGRFTISRDNAKNTVYLQMNSLKPEDTAVYSCAAGYNPHGQYDYWGQGTQVTVSS
- polyreactivity (PSR sort gate): low polyreactivity

Sequence: QVQLVESGGGLVQAGGSLRLSCAASGSIFVEYAMGWYRQAPGKERELVSAIRWRGGSTNYADSVKGRFTISRDTAKNTVYLQMNSLNREDTAVYYCNARHPASGDLYRMDYWGQGTQVTVSS
- polyreactivity (PSR sort gate): low polyreactivity

Sequence: QVQLVESGGGLVQAGGSLRLSCAASGSIFVGNAMGWYRQAPGKERELVAAINSGGSTNYADSVKGRFTISRDNAKNTVYLQMNSLKTEDTAVYYCAADDDYCRILQGDQSDDYWGQGTQVTVSS
- polyreactivity (PSR sort gate): low polyreactivity

Sequence: QVQLVESGGGLVQAGGSLRLSCAASGSIFVGTAMGWYRQAPGKERELVADINSGGSTNYADSVKGRVTISRDNAKNTVYLQMNSLKPEDTAVSYCAKSAVSGTYDYWGQGTQVTVSS
- polyreactivity (PSR sort gate): low polyreactivity

Sequence: QVQLVESGGGLVQAGGSLRLSCAASGSIFVGYAMGWYRLAPGKERELVASITNGDSTNYADSVKGRFTISRDNAKNTVYLQMNSLKPEDTAVYYCAADYYSFHPSGWYGYEYWGQGTQVTVSS
- polyreactivity (PSR sort gate): low polyreactivity

Sequence: QVQLVESGGGLVQAGGSLRLSCAASGSIFVGYAMGWYRQAPGKERELVAAISKSGGSTYYADSVKGRFTISRDNAKNTDYLQMNSLKPEDTAVYYCATRTHRRGNYLSITHEYWGQGTQVTVSS
- polyreactivity (PSR sort gate): high polyreactivity

Sequence: QVQLVESGGGLVQAGGSLRLSCAASGSIFVGYAMGWYRQAPGKEREWVAAIRSGGSTKYADSVKGRFTISRDNAKNTVYLQMNSLKPEDTAVYYCNVEVHPYYWVDNFQRFPVLHNYWGQGTQVTVSS
- polyreactivity (PSR sort gate): low polyreactivity

Sequence: QVQLVESGGGLVQAGGSLRLSCAASGSIFVGYDMGWYRQAPGKERELVAAISWRGVGTYYADSVKGRCTISRDNAKNTVYLQMNSLKPEDTAVYYCAARWTVPRDSAPSKGYDYWGQGTQVTVSS
- polyreactivity (PSR sort gate): low polyreactivity

Sequence: QVQLVESGGGLVQAGGSLRLSCAASGSIFVHNAMGWYRQAPGKERELVAAITWSGGSTYYADSVKGRFTISRDNAKNTVYLQMNSLKPEDTAVYYCNATYSVRYYLEFLNEPEMDYWGQGTQVTVSS
- polyreactivity (PSR sort gate): low polyreactivity

Sequence: QVQLVESGGGLVQAGGSLRLSCAASGSIFVINAMGWYRQAPGKERELVAAIDWSGDSTYYADSVKVRFTISRDNAKNTVYLEMNSLKPEDTAVYYCAADLDSRGTYGRYEYWGQGTQVTVSS
- polyreactivity (PSR sort gate): low polyreactivity

Sequence: QVQLVESGGGLVQAGGSLRLSCAASGSIFVIYAMGWYRQAPGKERELVAAISRSGGRTYYADSVKGRFTISRDNAKTTVYLQMNSLKPEDTAVYYCAAEGSTYQGAPGVYYWGQGTQVTVSS
- polyreactivity (PSR sort gate): high polyreactivity

Sequence: QVQLVESGGGLVQAGGSLRLSCAASGSIFVIYAMGWYRQAPGKERELVATISGGGGTNYADSVKGRFTISRDNAKNTVYLQMNSLNPEDTAVYYCAARSKVHRWRKRYDYWGQGTQVTVSS
- polyreactivity (PSR sort gate): high polyreactivity

Sequence: QVQLVESGGGLVQAGGSLRLSCAASGSIFVKNAMGWYRQAPGKEREFVAAITTSGGSTNYADSVKGRFTISLDNAKNTVYLQMNSLKPEDTAVYYCNTDIFPAAYDYWGQGTQVTVSS
- polyreactivity (PSR sort gate): low polyreactivity

Sequence: QVQLVESGGGLVQAGGSLRLSCAASGSIFVKNAMGWYRQAPGKERELVARITYSGGSTYYADSVKGRFTISRDNAKNTVYLQMNSLKPEDTAVYYCAARYWYFPQTYYPGNDYWGQGTQVTVSS
- polyreactivity (PSR sort gate): high polyreactivity

Sequence: QVQLVESGGGLVQAGGSLRLSCAASGSIFVLNAMGWYRPAPGKDRELVAAITNVGSTYYADSVKGRFTISRDNAKNTVYLQMNSRKPEDTAVYYCNADPAEVLVGYDYWGQGTQVTVSS
- polyreactivity (PSR sort gate): low polyreactivity

Sequence: QVQLVESGGGLVQAGGSLRLSCAASGSIFVLNAMGWYRQAPGKERELVAAITNVGSTYYADSVKGRFTISRDNAKNTVYLQMNSLKPEDTAVYYCVAKGHLYSGGYEYYYWGQGTQVTVSS
- polyreactivity (PSR sort gate): low polyreactivity

Sequence: QVQLVESGGGLVQAGGSLRLSCAASGSIFVLYAMGWYRQAPGKEREFVAAISWSGDSTYYADSVKGRFTISRDNAKNTVFLQMNSLKPEDTAVYYCAVYGYRTKYGYWGQGTQVTVSS
- polyreactivity (PSR sort gate): high polyreactivity

Sequence: QVQLVESGGGLVQAGGSLRLSCAASGSIFVNYAMGWYRQAPGKERELVAAITSRGTRTYYADSVKGRFTISRDNAKNTVYLQMNSLKPEDTAVYYCAAKQVSRGVAAYDYWGQGTQVTVSS
- polyreactivity (PSR sort gate): high polyreactivity

Sequence: QVQLVESGGGLVQAGGSLRLSCAASGSIFVPNAMGWYRQAPGNERELVADLTRRGGSTYYADSVKGRFTISRDNAKNTVYLQMNSLKPEDTAVYYCNATYLTRSTRLSDFDYWGQGTQVTVSS
- polyreactivity (PSR sort gate): high polyreactivity

Sequence: QVQLVESGGGLVQAGGSLRLSCAASGSIFVPNTMGWYRQAPGKERELVAAIRFSSGRTYYADSVKGRFTISRDNAKNTVYLQMNSLKPEVTAVYYCAADPRYSSGITYTRFYYWGQGTQVTVSS
- polyreactivity (PSR sort gate): high polyreactivity

Sequence: QVQLVESGGGLVQAGGSLRLSCAASGSIFVPYAMGWYRQAPGKERELVAAINHGGGRTYADSVKGRFTISRDNAKNTVYLQMNSLKPEDTAVYYCAADGAHKFGYYRYYYWGQGTQVTVSS
- polyreactivity (PSR sort gate): low polyreactivity

Sequence: QVQLVESGGGLVQAGGSLRLSCAASGSIFVPYAMGWYRQAPGKERELVAAISNGDSTYYADSVKGRFTISRDNAKNTVYLQMNSLKPEDTAVYYCATRGIPDDNARDYWGQGTQVTVSS
- polyreactivity (PSR sort gate): low polyreactivity

Sequence: QVQLVESGGGLVQAGGSLRLSCAASGSIFVPYAMGWYRQAPGKERELVAAITWSGSSTYYADSVKGRFTISRDNAKNTVYLQMNSLKPEDTAVYYCAADYFDWEGNGYYYWGQGTQVTVSS
- polyreactivity (PSR sort gate): high polyreactivity

Sequence: QVQLVESGGGLVQAGGSLRLSCAASGSIFVQNAMGWYRQAPGTERELVAVINSGDSTNYADSVKGRFTISRDNAKNTVDLQMNSLKPEDTAVYYCAVDDVSYYYLRAYNYELSWYCSGLDYWGQGTQVTVSS
- polyreactivity (PSR sort gate): low polyreactivity

Sequence: QVQLVESGGGLVQAGGSLRLSCAASGSIFVQYAMGWYRQAPGKERELVAAISRGGGRTYYADSVKGRFTISRDNANNTVYLQMNSLKPEDTAVYYCAADSRPRDDYWGQGTQVTVSS
- polyreactivity (PSR sort gate): high polyreactivity

Sequence: QVQLVESGGGLVQAGGSLRLSCAASGSIFVRNAMGWYRQAPGKERELVAAITATGGRTYYADSVKGRFTISRDNAKNTVYLQMNSLKPEDTAVYYCAAYYPRSGYDYWGQGTQVTVSS
- polyreactivity (PSR sort gate): high polyreactivity

Sequence: QVQLVESGGGLVQAGGSLRLSCAASGSIFVRNGMGWYIQAPGKERELVASITSGTITYYADSVKGRFTISRDNAKNTVYLQMNSLKPEDTAVYYCAARRDRGRVKFYYWGQGTQVTVSS
- polyreactivity (PSR sort gate): high polyreactivity

Sequence: QVQLVESGGGLVQAGGSLRLSCAASGSIFVRNGMGWYRQAPGKERELVASITSGTITYYADSVKGRFTISRDNAKNTVYLQINSLKPEDTAVYYCNAGCRSSRFKRPYFRERNYWGQGTQVTVSS
- polyreactivity (PSR sort gate): high polyreactivity

Sequence: QVQLVESGGGLVQAGGSLRLSCAASGSIFVRYAMGWYRQAPGKERQLVASIRSRGDSTYYADSVKGRFTISRDNAKNTVYLQMNSLKPEETAVYYCAARRYPPRMDYWGQGTQVTVSS
- polyreactivity (PSR sort gate): high polyreactivity
